Results as given in patent publication US5607847.

Target: gp120 of HIV-1 strain IIIB (HIV-1 IIIB)

B1: murine monoclonal antibody NM-01 (antibody, V domains shown)
VH: QIQLKESGPAVIKPSQSLSLTCIVSGFSITSSSYCWHWIRQPPGKGLEWMGRICYEGSIDYSPSIKSRSTISRDTSLNRFFIQLSSVTNEDTAMYYCSRENHGTTTSMDYWGQGTSVTVSS
VL: DIVLTQSPASLAVSLGQRATISCRASESVDSYGNSFMHWYQQKPGQSPKLLIYVASNLESGVPARFSGSGSRTDFTLTIDPVEADDAATYYCQQNNEDPLTFGAGTKLELK
50% neutralization by the p24 assay: 0.15 µg/mL
ID50 (reverse transcriptase assay): 0.2 µg/mL
